Laboratory results from patent publication US20060257938A1, “Method of screening for drugs that block ligand binding to a lipid binding protein” (priority 2005, published 2006).
Substitutions are numbered along the chain they refer to. Where “and” joins values, the source holds several entries; their conditions need not be identical. Identical values can stand only once.

B1: 106H2, 72A (protein, listed as Rattus norvegicus)
chain: AFDGTWKVDRNENYEKFMEKMGINVVKRKLGAHDNLKLTITQEGNKFTVKESSNFRNIDVVFELGVDFAYSAADGTELTGTWTMEGNKLVGKFKRVDNGKELIAVHEISGNELIQTYTYEGVEAKRIFKKE
modifications: PEPTIDE (1)...(131) wild-type rat intestinal fatty acid binding protein
B2: 106T2, 72A (protein, listed as Rattus norvegicus)
chain: B1 chain with H106T
modifications: PEPTIDE (1)...(131) wild-type rat intestinal fatty acid binding protein
B3: 115A1, 72A (protein, listed as Rattus norvegicus)
chain: B1 chain with H106R, Q115A
modifications: PEPTIDE (1)...(131) wild-type rat intestinal fatty acid binding protein
B4: 115I3, 72A (protein, listed as Rattus norvegicus)
chain: B1 chain with H106R, Q115I
modifications: PEPTIDE (1)...(131) wild-type rat intestinal fatty acid binding protein
B5: 115L3, 72A (protein, listed as Rattus norvegicus)
chain: B1 chain with H106R, Q115L
modifications: PEPTIDE (1)...(131) wild-type rat intestinal fatty acid binding protein
B6: 106L3, 72A (protein, listed as Rattus norvegicus)
chain: B1 chain with H106L
modifications: PEPTIDE (1)...(131) wild-type rat intestinal fatty acid binding protein
B7: 113M, 72A (protein, listed as Rattus norvegicus)
chain: B1 chain with H106R, L113M
modifications: PEPTIDE (1)...(131) wild-type rat intestinal fatty acid binding protein
B8: 106Q, 72A (protein, listed as Rattus norvegicus)
chain: B1 chain with H106Q
modifications: PEPTIDE (1)...(131) wild-type rat intestinal fatty acid binding protein
B9: 115N2, 72A (protein, listed as Rattus norvegicus)
chain: B1 chain with H106R, Q115N
modifications: PEPTIDE (1)...(131) wild-type rat intestinal fatty acid binding protein
B10: 106N1, 72A (protein, listed as Rattus norvegicus)
chain: B1 chain with H106N
modifications: PEPTIDE (1)...(131) wild-type rat intestinal fatty acid binding protein
B11: 115P1, 72A (protein, listed as Rattus norvegicus)
chain: B1 chain with H106R, Q115P
modifications: PEPTIDE (1)...(131) wild-type rat intestinal fatty acid binding protein
B12: 106W, 72A (protein, listed as Rattus norvegicus)
chain: B1 chain with H106W
modifications: PEPTIDE (1)...(131) wild-type rat intestinal fatty acid binding protein
B13: 115R1, 72A (protein, listed as Rattus norvegicus)
chain: B1 chain with H106R, Q115R
modifications: PEPTIDE (1)...(131) wild-type rat intestinal fatty acid binding protein
B14: 106Y1, 72A (protein, listed as Rattus norvegicus)
chain: B1 chain with H106Y
modifications: PEPTIDE (1)...(131) wild-type rat intestinal fatty acid binding protein
B15: 106S2, 72A (protein, listed as Rattus norvegicus)
chain: B1 chain with H106S
modifications: PEPTIDE (1)...(131) wild-type rat intestinal fatty acid binding protein
B16: 115E1, 72A (protein, listed as Rattus norvegicus)
chain: B1 chain with H106R, Q115E
modifications: PEPTIDE (1)...(131) wild-type rat intestinal fatty acid binding protein
B17: 115D1, 72A (protein, listed as Rattus norvegicus)
chain: B1 chain with H106R, Q115D
modifications: PEPTIDE (1)...(131) wild-type rat intestinal fatty acid binding protein
B18: 102A, 72A (protein, listed as Rattus norvegicus)
chain: B1 chain with L102A, H106R
modifications: PEPTIDE (1)...(131) wild-type rat intestinal fatty acid binding protein
B19: 115K3, 72A (protein, listed as Rattus norvegicus)
chain: B1 chain with H106R, Q115K
modifications: PEPTIDE (1)...(131) wild-type rat intestinal fatty acid binding protein
B20: 115H1, 72A (protein, listed as Rattus norvegicus)
chain: B1 chain with H106R, Q115H
modifications: PEPTIDE (1)...(131) wild-type rat intestinal fatty acid binding protein
B21: 106I3, 72A (protein, listed as Rattus norvegicus)
chain: B1 chain with H106I
modifications: PEPTIDE (1)...(131) wild-type rat intestinal fatty acid binding protein
B22: 106V1, 72A (protein, listed as Rattus norvegicus)
chain: B1 chain with H106V
modifications: PEPTIDE (1)...(131) wild-type rat intestinal fatty acid binding protein
B23: 115F1, 72A (protein, listed as Rattus norvegicus)
chain: B1 chain with H106R, Q115F
modifications: PEPTIDE (1)...(131) wild-type rat intestinal fatty acid binding protein

Assay: Probe fluorescence ratio response to palmitic acid relative to ADIFAB2
Type: binding
Conditions: response relative to ADIFAB2
How it was run: (§1)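 Each fatty acid's response was expressed relative to ADIFAB2, the rI-FABP-L72A probe, as ΔR/ΔRreference. ΔR is the change in the background-corrected two-wavelength intensity ratio R=Fλ1/Fλ2 from its analyte-free baseline R0. Emission was read near about 420-480 nm for unbound and about 495-580 nm for FFA-bound probe.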

| Molecule | DR/DR PA |
| --- | --- |
| B1 | 0.33 |
| B2 | 0.23 |
| B3 | 1.11 |
| B4 | 0.84 |
| B5 | 1.15 |
| B6 | 0.43 |
| B7 | 1.19 |
| B8 | 0.18 |
| B9 | 0.56 |
| B10 | 0.15 |
| B11 | 0.70 |
| B12 | 0.41 and 0.407 |
| B13 | 0.70 |
| B14 | 0.27 |
| B15 | 0.15 |
| B16 | 0.08 |
| B17 | 1.14 |
| B18 | 0.20 |
| B19 | 1.18 |
| B20 | 0.51 |
| B21 | 0.29 |
| B22 | 0.32 |
| B23 | 0.77 |

Assay: Probe fluorescence ratio response to linolenic acid relative to ADIFAB2
Type: binding
Conditions: response relative to ADIFAB2
How it was run: as §1

| Molecule | DR/DR LNA |
| --- | --- |
| B1 | 0.73 |
| B2 | 0.58 |
| B3 | 1.26 |
| B4 | 0.80 |
| B5 | 1.29 |
| B6 | 0.84 |
| B7 | 1.38 |
| B8 | 0.38 |
| B9 | 0.73 |
| B10 | 0.44 |
| B11 | 1.35 |
| B12 | 1.03 |
| B13 | 1.43 |
| B14 | 0.60 |
| B15 | 0.40 |
| B16 | 0.10 |
| B17 | 1.20 |
| B18 | 0.44 |
| B19 | 1.32 |
| B20 | 0.70 |
| B21 | 0.71 |
| B22 | 0.82 |
| B23 | 1.49 |

Assay: Probe fluorescence ratio response to linoleic acid relative to ADIFAB2
Type: binding
Conditions: response relative to ADIFAB2
How it was run: as §1

| Molecule | DR/DR LA |
| --- | --- |
| B1 | 0.78 |
| B2 | 0.47 |
| B3 | 1.22 |
| B4 | 0.81 |
| B5 | 1.24 |
| B6 | 0.87 |
| B7 | 1.46 |
| B8 | 0.36 |
| B9 | 0.78 |
| B10 | 0.45 |
| B11 | 1.37 |
| B12 | 1.04 and 1.042 |
| B13 | 1.45 |
| B14 | 0.61 |
| B15 | 0.36 |
| B16 | 0.15 |
| B17 | 1.19 |
| B18 | 0.35 |
| B19 | 1.23 |
| B20 | 0.74 |
| B21 | 0.68 |
| B22 | 0.82 |
| B23 | 1.46 |

Assay: Probe fluorescence ratio response to oleic acid relative to ADIFAB2
Type: binding
Conditions: response relative to ADIFAB2
How it was run: as §1

| Molecule | DR/DR OA |
| --- | --- |
| B1 | 0.82 |
| B2 | 0.53 |
| B3 | 1.20 |
| B4 | 0.88 |
| B5 | 1.25 |
| B6 | 0.87 |
| B7 | 1.42 |
| B8 | 0.39 |
| B9 | 0.71 |
| B10 | 0.50 |
| B11 | 1.26 |
| B12 | 0.99 and 0.991 |
| B13 | 1.36 |
| B14 | 0.60 |
| B15 | 0.48 |
| B16 | 0.10 |
| B17 | 1.21 |
| B18 | 0.52 |
| B19 | 1.25 |
| B20 | 0.68 |
| B21 | 0.72 |
| B22 | 0.84 |
| B23 | 1.41 |

Assay: Probe fluorescence ratio response to arachidonic acid relative to ADIFAB2
Type: binding
Conditions: arachidonic acid; response relative to ADIFAB2
How it was run: as §1

| Molecule | DR/DR AA |
| --- | --- |
| B1 | 0.75 |
| B2 | 0.43 |
| B3 | 1.17 |
| B4 | 0.87 |
| B5 | 1.26 |
| B6 | 0.84 |
| B7 | 1.33 |
| B8 | 0.37 |
| B9 | 0.92 |
| B10 | 0.38 |
| B11 | −0.17 |
| B12 | 1.11 and 1.106 |
| B13 | 1.40 |
| B14 | 0.57 |
| B15 | 0.32 |
| B16 | 0.12 |
| B17 | 1.17 |
| B18 | 0.45 |
| B19 | 1.26 |
| B20 | 0.89 |
| B21 | 0.59 |
| B22 | 0.61 |
| B23 | 1.36 |
